In article doi:10.1101/2025.03.13.643050:

What follows are substances tested against prf.GLFG_(52×12), Nup98-type FG domain comprising 52 perfect 12mer GLFG repeat units (assay: FG phase partitioning).

Row | Substance | fold reduction of partitioning against wild type | partition coefficient | partitioning relative to the wild-type level | reduction in partitioning against wild type
1 | conical CLPs of HIV-1 CA I91E, filled with sinGFP4a (complex) | > 10 fold | – | – | –
2 | conical CLPs (capsid-like particles) of HIV-1 CA wild-type, labelled with ~15% CA-EGFP (complex) | – | 1000 | – | –
3 | conical CLPs of HIV-1 CA A88E, filled with sinGFP4a (complex) | > 10 fold | – | – | –
4 | conical CLPs of HIV-1 CA V86E, filled with sinGFP4a (complex) | > 10 fold | – | – | –
5 | 20 nm T1 pentamer-only capsid spheres of HIV-1 CA G60A, G61P, labelled with ~15% CA-EGFP (complex) | – | 750 | – | –
6 | mCherry | – | < 0.1 | – | –
7 | conical CLPs of HIV-1 CA M96E, filled with sinGFP4a (complex) | > 10 fold | – | – | –
8 | conical CLPs of HIV-1 CA G94D, filled with sinGFP4a (complex) | – | – | 5% | –
9 | conical CLPs of HIV-1 CA R132K, filled with sinGFP4a (complex) | – | – | – | 50%
10 | 40 nm capsid spheres of HIV-1 CA N21C, A22C, labelled with ~15% CA-EGFP (complex) | – | 1000 | – | –
11 | EGFP | – | < 0.1 | – | –
12 | conical CLPs of HIV-1 CA H87Q, filled with sinGFP4a (complex) | – | – | – | 50%
13 | conical CLPs of HIV-1 CA H87E, filled with sinGFP4a (complex) | 15 fold | – | – | –
14 | conical CLPs of HIV-1 CA A92E, filled with sinGFP4a (complex) | > 10 fold | – | 5% | –

Each substance was assayed against FG repeat domain of 669 residues with non-charged spacers and 36 FSFG motifs (assay: FG phase partitioning).

Row | Substance | fold more effective entry than wild-type CLPs
15 | conical CLPs of HIV-1 CA G89V, filled with sinGFP4a (complex) | 4 fold
